Data published in US9057734B2, “Optogenetic probes for measuring membrane potential” (President and Fellows of Harvard College, priority 2010, dated 2015).
“Also recorded” adds a separate entry of the source.

B1: Arch D95N: D95N mutant of Archaerhodopsin 3 without photocurrent, voltage indicator (protein, UniProt P96787 7-258, looked up, variant D95N)
Archaerhodopsin-3: QAGYDLLGDGRPETLWLGIGTLLMLIGTFYFLVRGWGVTDKDAREYYAVTILVPGIASAAYLSMFFGIGLTEVTVGGEMLDIYYARYANWLFTTPLLLLDLALLAKVDRVTIGTLVGVDALMIVTGLIGALSHTAIARYSWWLFSTICMIVVLYFLATSLRSAAKERGPEVASTFNTLTALVLVLWTAYPILWIIGTEGAGVVGLGIETLLFMVLDVTAKVGFGFILLRSRAILGDTEAPEPSAGADVSAAD

Tests used:
E. coli = experiment: Chemical perturbation of fluorescence flashing of E. coli expressing PROPS; assay type: cell-based; conditions: 20 μg/mL
Source text: PROPS was expressed in E. coli, the cells were immobilized on a glass coverslip, and imaged in an inverted epifluorescence microscope while gently flowing minimal medium at pH 7 over the cells. […] The flashes occurred simultaneously (to within the 10 ms imaging resolution) and homogeneously over the extent of a cell. Flashes were uncorrelated between neighboring cells.
Flashing cells were subjected to chemical perturbations in an effort to deduce the mechanism of the voltage changes. In unstirred medium in a sealed chamber, the flashing ceased over ˜15 minutes; but re-started upon addition of freshly oxygenated medium. Removal of oxygen from the medium using Oxyrase also reversibly eliminated flashing. From these experiments it was concluded that flashing requires aerobic respiration. Under continuous gentle flow of aerated minimal medium, cells flashed continuously for >1 hr. Cells stored in minimal media for several days at 4° C. started flashing when warmed to room temperature.
Flashing was highly sensitive to pHo, occurring only between pH 7 and 9. Flashing frequencies increased and on-time decreased at lower pH. Flashing was more likely to be periodic at lower pH. Extremes of pH (<6 or >9.5) irreversibly eliminated flashing, causing cells to enter the bright state in an abrupt transition.

HEK cells = experiment: Photocurrents under 640 nm illumination in voltage-clamped cells; assay type: cell-based, human; conditions: illumination at 640 nm
Procedure: Measurements of photocurrents were performed on HEK cells held in voltage clamp at 0 mV while being exposed to brief (200 ms) pulses of illumination at 640 nm at an intensity of 1800 W/cm^2.

HEK-293 cells = experiment: Fluorescence versus membrane potential under whole-cell voltage clamp (ramp, step, frequency response, noise); assay type: cell-based, human
Procedure: Fluorescence of Arch 3 in HEK 293 cells was readily imaged in an inverted fluorescence microscope with red illumination (λ=640 nm, I=540 W/cm^2), a high numerical aperture objective, a Cy5 filter set, and an EMCCD camera. […] Cells not expressing Arch were not fluorescent.
HEK-293 cells were grown at 37° C., 5% CO2, in DMEM supplemented with 10% FBS and penicillin-streptomycin. Plasmids were transfected using LIPOFECTAMINE™ and PLUS reagent (Invitrogen) following the manufacturer's instructions, and assayed between 48-72 hours later. The day before recording, cells were re-plated onto glass-bottom dishes (MatTek) at a density of ˜5000 cells/cm^2.
The concentration of endogenous retinal in the HEK cells was not known, so the cells were supplemented with retinal by diluting stock retinal solutions (40 mM, DMSO) in growth medium to a final concentration of 5 μM, and then placing the cells back in the incubator for 1-3 hours. All imaging and electrophysiology were performed in Tyrode's buffer (containing, in mM: 125 NaCl, 2 KCl, 3 CaCl2, 1 MgCl2, 10 HEPES, 30 glucose pH 7.3, and adjusted to 305-310 mOsm with sucrose). Only HEK cells having reversal potentials between −10 and −40 mV were included in the analysis.
Simultaneous fluorescence and whole-cell patch clamp recordings were acquired on a home-built, inverted epifluorescence microscope at room temperature. A diode laser operating at 100 mW, 640 nm (CrystaLaser, DL638-100-O) provided wide-field illumination at an intensity typically between 500-2000 W/cm^2. To minimize background signal from out-of-focus debris, illumination was often performed in through-the-objective total internal reflection fluorescence (TIRF) mode. Fluorescence emission was collected using a 60×, 1.45 NA oil immersion objective (Olympus), and separated from scattered excitation using a 660-760 nm bandpass emission filter (Chroma). For fast imaging of dynamic fluorescence responses and action potentials, images were acquired on an Andor iXon^+ 860 camera operating at up to 2,000 frames/s (using a small region of interest and pixel binning). Slower images with higher spatial resolution were acquired on an Andor iXon^+ 897 EMCCD. Custom software written in LabView (National Instruments) was used to synchronize illumination, collection of images, recording of membrane potential and cell current, and application of electrical stimuli to the cell.
Filamented glass micropipettes (WPI) were pulled to a tip resistance of 3-10 MΩ, fire polished, and filled with internal solution (containing, in mM: 125 Potassium gluconate, 8 NaCl, 0.6 MgCl2, 0.1 CaCl2, 1 EGTA, 10 HEPES, 4 Mg-ATP, 0.4 Na-GTP, pH 7.3; adjusted to 295 mOsm with sucrose). The micropipettes were positioned with a Burleigh PCS 5000 micromanipulator. Whole-cell, voltage clamp recordings were acquired using an AxoPatch 200B amplifier (Molecular Devices), filtered at 2 kHz with the internal Bessel filter, and digitized with a National Instruments PCIE-6323 acquisition board at 10 kHz. Ambient 60 Hz noise was removed using a HumBug Noise Eliminator (AutoMate Scientific). For experiments requiring rapid modulation of transmembrane potential, series resistance and whole-cell capacitance were predicted to 95% and corrected to ˜50%. Electrical stimuli were generated using the PCIE-6323 acquisition board and sent to the AXOPATCH™, which then applied these signals in either constant current or constant voltage mode.
To measure fluorescence as a function of membrane potential, a triangle wave was applied, with amplitude from −150 mV to +150 mV and period 12 s, with video recording at 100 ms per frame. A pixel weight matrix was calculated according to Eq. S2 and applied to the movie images to generate a fluorescence number for each frame. These fluorescence values were divided by their minimum value (at V=−150 mV). The result is plotted as a function of Vin FIGS. 7 and 8. […]

neurons = experiment: Light-induced photocurrent and perturbation of membrane potential in neurons; assay type: cell-based, rat; conditions: 640 nm, 1800 W/cm2
Source text: Under illumination conditions typically used for imaging neural activity (I=1800 W/cm2 in total internal reflection (TIR) mode), the light-induced outward photocurrent was typically 10 pA in neurons expressing Arch 3 WT. Under current-clamp conditions this photocurrent shifted the resting potential of the neurons by up to −20 mV. For neurons near their activation threshold, this photocurrent could suppress firing (FIG. 9A), so we explored the non-pumping variant D95N as a voltage indicator in neurons.
Whole-cell current clamp recordings were obtained from mature neurons under the same conditions used for HEK cells recordings. Series resistance and pipette capacitance were corrected. Only neurons having resting potentials between −50 and −70 mV were used in the analysis.

[1] = Spectroscopic characterization of purified Arch WT and D95N; assay type: physicochemical
Procedure: FIGS. 17A-17C show pH-dependent spectra of Arch 3 WT and D95N. […] At neutral pH, Arch absorbed maximally at 558 nm. Fluorescence emission (dashed line) was recorded on 2 μM protein solubilized in 1% DM, with λexc=532 nm. […] The absorption maximum was at 585 nm. […] Singular Value Decomposition of absorption spectra between 400-750 nm was used to calculate the fraction of the SB in the protonated state as a function of pH. The result was fit to a Hill function to determine the pKa of the SB.
Arch and its D95N mutant were expressed and purified from E. coli, following Bergo, V., et al. (Conformational changes detected in a sensory rhodopsin II-transducer complex. J. Biol. Chem. 278, 36556-36562 (2003)). Briefly, E. coli (strain BL21, pet28b plasmid) was grown in 1 L of LB with 100 μg/mL kanamycin, to an O.D 600 of 0.4 at 37° C. All-trans retinal (5 μM) and inducer (IPTG 0.5 mM) were added and cells were grown for an additional 3.5 hours in the dark. Cells were harvested by centrifugation and resuspended in 50 mM Tris, 2 mM MgCl2 at pH 7.3 and lysed with a tip sonicator for 5 minutes. The lysate was centrifuged and the pellet was resuspended in PBS supplemented with 1.5% dodecyl maltoside (DM). The mixture was homogenized with a glass/teflon Potter Elvehjem homogenizer and centrifuged again. The supernatant was concentrated and washed using a centricon 30k MWCO filter to a final volume of 3 mL.
The absorption spectra of purified Arch 3 WT and D95N were determined using an Ocean Optics USB4000 spectrometer with a DT-MINI-2-GS light source. Absorption spectra, for Arch 3 WT and D95N, were measured as a function of pH between pH 6 and 11. To determine the fluorescence emission spectra, proteins in a quartz cuvette were illuminated with the uncollimated beam of a 100 mW, 532 nm laser (Dragon Lasers, 532GLM100) or a 25 mW, 633 nm HeNe laser (Spectra-Physics). Scattered laser light was blocked with a 532 nm Raman notch filter (Omega Optical, XR03) or a 710/100 emission filter (Chroma), and fluorescence was collected perpendicular to the illumination with a 1000 micron fiber, which passed the light to an Ocean Optics QE65000 spectrometer. Spectra were integrated for 2 seconds.
The fluorescence quantum yields of Arch 3 WT and D95N were determined by comparing the integrated emission intensity to emission of a sample of the dye ALEXA FLUOR® 647 Conjugate. Briefly, the concentrations of micromolar solutions of dye and protein were determined using a visible absorption spectrum. […] The fluorescence emission spectra of dye and protein samples were measured with 633 nm excitation. The quantum yield was then determined by the formula
where Fl is the integrated fluorescence from 660 to 760 nm, ε is the extinction coefficient at 633 nm and c is the concentration.

| Molecule | effect on blinking (E. coli) | photocurrent / photoinduced proton pumping (HEK cells) | photocurrent / photoinduced proton pumping (HEK cells; listed as Arch 3 D95N) | comparison with Arch 3 WT (HEK-293 cells) | voltage steps resolved/reported (HEK-293 cells; HEK cells) [mV] | fast component of step response, time (HEK-293 cells; step response) [μs] | response time to a step in membrane potential (HEK-293 cells; steps between −70 mV and +30 mV) [ms] | increase of fluorescence (fold/factor) between −150 mV and +150 mV (HEK-293 cells; whole-cell voltage clamp) | effect of illumination on membrane potential (neurons) | ε633 ([1]; calibrated assuming peak extinction coefficient of Bacteriorhodopsin, 63,000 M^−1 cm^−1) | QY ([1]; comparison to Alexa 647, excitation at 633 nm) |
| --- | --- | --- | --- | --- | --- | --- | --- | --- | --- | --- | --- |
| N#CC(C#N)=NNc1cccc(Cl)c1 [CCCP, Carbonyl cyanide 3-chlorophenylhydrazone] | rapidly and irreversibly eliminated the blinking | – | – | – | – | – | – | – | – | – | – |
| B1 | – | no photocurrent; also recorded: eliminated the photocurrent | lacks photoinduced proton pumping | more sensitive and brighter than Arch 3 WT, but had a slower response | 10 | < 500 | 40 | 3 | no effect of illumination on spiking or resting potential; also recorded: did not perturb membrane potential | 37,500 M^−1cm^−1 | 4 × 10^−4 |
